How the values were obtained:
[1] = molecular target: T1, collagen type I (rat tail) (Rattus norvegicus, UniProt P02454+P02466); assay: Collagen fibrillogenesis turbidity assay; type: biochemical
T1 construct: collagen type I (rat tail; Corning, UK); purchased Corning, UK; host or cells: rat tail (tissue-derived)
Procedure: Collagen fibrillogenesis: For the dose response curves, 75 μl of PBS was added to each well of a 96 well plate kept on ice. Varying hrDecorin doses were prepared by adding 400 μg/ml of hrDecorin to the first well and subsequently serial diluting (2-fold dilution) across the plate. Following dilution, a further 150 μl of PBS buffer was added to each well. Then, 75 μl of collagen type I (rat tail; Corning, UK) (800 μg/ml) was added to each well and incubated for 2 hours at 37° C. Subsequent absorbance readings were taken using a 405 nm plate reader. Each assay consisted of duplicate blank controls, and triplicate standard dilutions followed by triplicate sample dilutions. Kinetics of fibril formation were determined using a similar setup as the dose response, without serial dilution; incubating the samples within the plate reader, and taking data points every 2 minutes.

[2] = hrDecorin release from the fluid gel (ELISA); type: physicochemical; conditions: cumulative release over 4 hours (240 mins), DMEM, 37° C.
Procedure: Levels of hrDecorin release from the gel were determined cumulatively, by placing 1 ml of the fluid gel containing hrDecorin in a 6 well plate. Then 2 ml of DMEM was placed over the sample and the plates were incubated at 37° C. At each time point, the media was removed for measurement of hrDecorin, and replaced with fresh media. Decorin release was quantified using an ELISA specific for human Decorin (R&D systems, Minneapolis, USA) in accordance with the manufacturer's protocol.

[3] = turbidity at 405 nm, 2 hours at 37° C.

T1 sequence (P02454 152-1207 limits assumed): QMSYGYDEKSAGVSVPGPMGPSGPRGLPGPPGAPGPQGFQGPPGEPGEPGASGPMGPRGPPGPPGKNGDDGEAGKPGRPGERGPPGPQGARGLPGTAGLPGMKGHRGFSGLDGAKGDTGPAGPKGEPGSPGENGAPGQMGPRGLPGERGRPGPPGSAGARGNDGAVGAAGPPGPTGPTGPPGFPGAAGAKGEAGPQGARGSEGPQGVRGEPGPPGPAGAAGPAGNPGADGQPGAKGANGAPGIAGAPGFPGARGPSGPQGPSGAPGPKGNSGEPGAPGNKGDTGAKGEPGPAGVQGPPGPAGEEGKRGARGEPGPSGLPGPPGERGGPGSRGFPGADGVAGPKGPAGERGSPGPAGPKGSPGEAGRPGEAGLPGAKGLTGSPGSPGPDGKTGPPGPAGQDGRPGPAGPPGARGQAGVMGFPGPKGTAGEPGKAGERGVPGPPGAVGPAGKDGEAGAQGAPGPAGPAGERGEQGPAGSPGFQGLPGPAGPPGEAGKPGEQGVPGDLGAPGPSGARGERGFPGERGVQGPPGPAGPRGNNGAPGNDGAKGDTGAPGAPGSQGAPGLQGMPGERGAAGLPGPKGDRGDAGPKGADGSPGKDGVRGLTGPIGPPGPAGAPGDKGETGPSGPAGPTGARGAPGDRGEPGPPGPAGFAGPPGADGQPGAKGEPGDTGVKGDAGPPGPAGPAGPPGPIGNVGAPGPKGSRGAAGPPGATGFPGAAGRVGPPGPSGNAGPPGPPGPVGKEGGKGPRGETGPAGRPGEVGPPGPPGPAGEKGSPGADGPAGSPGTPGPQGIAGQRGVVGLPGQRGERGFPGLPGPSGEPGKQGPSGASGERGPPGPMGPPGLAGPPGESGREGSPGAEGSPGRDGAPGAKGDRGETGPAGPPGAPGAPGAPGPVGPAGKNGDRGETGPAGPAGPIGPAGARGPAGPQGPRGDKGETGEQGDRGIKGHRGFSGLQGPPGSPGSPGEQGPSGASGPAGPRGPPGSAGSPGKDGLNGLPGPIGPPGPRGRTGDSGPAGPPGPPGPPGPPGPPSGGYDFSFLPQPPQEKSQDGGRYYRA
T1 sequence (P02466 86-1125 limits assumed): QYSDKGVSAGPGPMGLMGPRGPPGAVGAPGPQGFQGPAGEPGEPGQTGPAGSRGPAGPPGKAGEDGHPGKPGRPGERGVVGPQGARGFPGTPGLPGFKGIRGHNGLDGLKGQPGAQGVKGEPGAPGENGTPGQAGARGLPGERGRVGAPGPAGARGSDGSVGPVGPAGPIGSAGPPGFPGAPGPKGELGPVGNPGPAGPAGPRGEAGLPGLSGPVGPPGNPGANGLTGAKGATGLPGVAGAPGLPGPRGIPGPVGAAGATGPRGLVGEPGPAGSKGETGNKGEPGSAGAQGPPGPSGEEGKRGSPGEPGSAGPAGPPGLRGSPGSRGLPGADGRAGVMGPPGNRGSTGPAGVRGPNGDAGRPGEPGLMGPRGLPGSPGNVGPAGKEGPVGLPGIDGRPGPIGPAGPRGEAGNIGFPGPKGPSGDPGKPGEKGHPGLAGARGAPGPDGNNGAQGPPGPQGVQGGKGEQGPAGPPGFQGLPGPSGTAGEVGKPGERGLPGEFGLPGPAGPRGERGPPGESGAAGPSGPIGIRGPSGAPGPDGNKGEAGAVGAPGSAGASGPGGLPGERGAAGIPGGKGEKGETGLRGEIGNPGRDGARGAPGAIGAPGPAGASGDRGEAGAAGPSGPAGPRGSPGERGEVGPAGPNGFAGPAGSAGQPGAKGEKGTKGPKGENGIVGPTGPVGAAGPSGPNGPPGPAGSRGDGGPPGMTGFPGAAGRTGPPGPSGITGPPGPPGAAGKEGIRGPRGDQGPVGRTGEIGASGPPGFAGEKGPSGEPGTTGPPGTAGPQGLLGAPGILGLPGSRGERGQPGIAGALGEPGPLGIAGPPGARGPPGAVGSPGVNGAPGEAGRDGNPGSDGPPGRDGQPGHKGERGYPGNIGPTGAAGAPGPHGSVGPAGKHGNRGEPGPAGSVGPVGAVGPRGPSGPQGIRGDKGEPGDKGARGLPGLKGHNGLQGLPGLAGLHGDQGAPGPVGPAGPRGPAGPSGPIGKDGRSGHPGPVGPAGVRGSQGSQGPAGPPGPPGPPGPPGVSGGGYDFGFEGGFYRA

B1: hrDecorin: human recombinant decorin (Galacorin™; Catalent), anti-fibrotic small leucine-rich proteoglycan (protein, UniProt P07585 31-359, looked up)
Decorin: DEASGIGPEVPDDRDFEPSLGPVCPFRCQCHLRVVQCSDLGLDKVPKDLPPDTTLLDLQNNKITEIKDGDFKNLKNLHALILVNNKISKVSPGAFTPLVKLERLYLSKNQLKELPEKMPKTLQELRAHENEITKVRKVTFNGLNQMIVIELGTNPLKSSGIENGAFQGMKKLSYIRIADTNITSIPQGLPPSLTELHLDGNKISRVDAASLKGLNNLAKLGLSFNSISAVDNGSLANTPHLRELHLDNNKLTRVPGGLAEHKYIQVVYLHNNNISVVGSSDFCPPGHNTKKASYSGVSLFSNPVQYWEIQPSTFRCVYVRSAIQLGNYK
concentration at which minimum turbidity is achieved, above which no further reduction occurs [1, 3]: > 10000 ng/mL | critical concentration above which hrDecorin inhibits fibrillogenesis [1, 3]: 0.5 μg/ml | kinetics of fibril formation ([1]; turbidity read every 2 minutes): slowing the onset of fibrillogenesis | rate of release of hrDecorin from the eye drop system [2]: almost linear over time

Reference: patent US20260272830A1, “Ocular Hydrogel Compositions” (The University of Birmingham, priority 2018, published 2026)
